Reference: the Human Domainome abundance scans (Beltran et al. 2025)
± gives the uncertainty stated by the source.

B1: POU domain, class 3, transcription factor 3, residues 408 to 463; numbered along this chain, P20264 (parent)
chain: KKRTSIEVSVKGALESHFLKCPKPSAQEITNLADSLQLEKEVVRVWFCNRRQKEKR

Variants of: B1
Assay: abundance fitness (aPCA) (normalised: wild type 0, dead -1); higher = more abundant; growth selection in yeast, the domain comes from the species named
Conditions: Homo sapiens

Abundance fitness, by site and new letter:
S5: H 0.175 ± 0.15, K 0.097 ± 0.11, M 0.125 ± 0.12, N 0.193 ± 0.11, P 0.132 ± 0.12, Q 0.203 ± 0.12, T 0.135 ± 0.098, W -0.255 ± 0.089, Y 0.206 ± 0.12
I6: A -0.015 ± 0.1, D -0.135 ± 0.12, E -0.091 ± 0.12, F -0.272 ± 0.12, G -0.071 ± 0.071, K -0.051 ± 0.12, N -0.234 ± 0.19, P 0.01 ± 0.16, Q -0.084 ± 0.09, R -0.108 ± 0.068, S -0.077 ± 0.078, T 0.058 ± 0.13, V -0.093 ± 0.082, W -0.124 ± 0.088, Y -0.189 ± 0.12
E7: A -0.096 ± 0.064, D 0.05 ± 0.08, F -0.263 ± 0.063, G 0.013 ± 0.085, H -0.016 ± 0.057, I -0.157 ± 0.069, K 0.028 ± 0.1, L -0.09 ± 0.05, M -0.035 ± 0.075, N 0.063 ± 0.06, P 0.167 ± 0.051, Q -0.035 ± 0.071, R -0.057 ± 0.063, S 0.144 ± 0.052, T 0.134 ± 0.056, V -0.197 ± 0.069, W -0.436 ± 0.21, Y -0.3 ± 0.06
V8: A -0.032 ± 0.097, C -0.171 ± 0.11, D -0.075 ± 0.13, E 0.088 ± 0.096, F 0.04 ± 0.27, G 0.055 ± 0.063, H -0.052 ± 0.15, I 0.1 ± 0.084, K 0.068 ± 0.11, L 0.1 ± 0.08, M 0.098 ± 0.12, N 0.039 ± 0.17, P 0.195 ± 0.12, R 0.001 ± 0.062, S 0.218 ± 0.092, T 0.161 ± 0.1, W -0.141 ± 0.1, Y -0.369 ± 0.21
S9: A 0.054 ± 0.088, C -0.247 ± 0.097, D 0.038 ± 0.14, E 0.072 ± 0.11, F -0.285 ± 0.16, G 0.027 ± 0.065, H 0.092 ± 0.37, I -0.368 ± 0.19, K 0.01 ± 0.15, L -0.206 ± 0.11, M -0.305 ± 0.15, N 0.166 ± 0.17, P -0.068 ± 0.18, Q 0.067 ± 0.36, R -0.018 ± 0.092, T -0.051 ± 0.13, V -0.132 ± 0.092, W -0.192 ± 0.12, Y -0.015 ± 0.22
V10: A -0.005 ± 0.086, C -0.108 ± 0.14, D 0.176 ± 0.15, E 0.154 ± 0.13, F -0.291 ± 0.15, G -0.241 ± 0.066, H 0.072 ± 0.18, I -0.066 ± 0.096, K -0.032 ± 0.13, L -0.042 ± 0.093, M -0.192 ± 0.14, N -0.148 ± 0.18, P -0.472 ± 0.13, Q 0.07 ± 0.13, R -0.108 ± 0.075, S -0.153 ± 0.089, T -0.023 ± 0.13, Y -0.129 ± 0.2
K11: A -0.099 ± 0.092, C -0.141 ± 0.094, F -0.186 ± 0.12, G -0.135 ± 0.067, H -0.04 ± 0.12, I -0.006 ± 0.11, M -0.006 ± 0.16, N -0.27 ± 0.15, P -0.024 ± 0.12, Q -0.015 ± 0.12, R -0.045 ± 0.067, V -0.085 ± 0.073, W -0.116 ± 0.089, Y 0.067 ± 0.12
G12: A 0.227 ± 0.087, C 0.096 ± 0.12, D 0.048 ± 0.1, E 0.111 ± 0.091, F -0.054 ± 0.11, H -0.009 ± 0.16, I 0.051 ± 0.16, K -0.035 ± 0.15, L 0.104 ± 0.071, M 0.161 ± 0.11, N 0.11 ± 0.15, P -0.056 ± 0.1, Q -0.094 ± 0.14, R 0.007 ± 0.061, T 0.078 ± 0.099, V 0.211 ± 0.075, W -0.25 ± 0.084, Y 0.103 ± 0.14
A13: C -0.199 ± 0.11, D -0.355 ± 0.13, E -0.081 ± 0.095, F -0.191 ± 0.17, G -0.46 ± 0.067, I -0.046 ± 0.18, L -0.093 ± 0.077, M -0.096 ± 0.12, N -0.274 ± 0.18, P -0.353 ± 0.12, Q -0.099 ± 0.11, R 0.018 ± 0.064, S -0.079 ± 0.089, T -0.058 ± 0.096, V 0.111 ± 0.075, W -0.344 ± 0.092, Y -0.17 ± 0.14
L14: A -0.8 ± 0.1, C -0.662 ± 0.12, D -0.697 ± 0.22, E -1.11 ± 0.16, F -0.899 ± 0.29, G -0.958 ± 0.083, I -0.45 ± 0.2, N -1.01 ± 0.18, P -1 ± 0.18, Q -0.942 ± 0.17, S -0.87 ± 0.097, T -0.839 ± 0.12, V -0.899 ± 0.1, W -1.01 ± 0.12, Y -0.815 ± 0.18
E15: A -0.858 ± 0.28, D -0.753 ± 0.42, G -1.02 ± 0.23, K -0.582 ± 0.3, L -0.599 ± 0.19, M -0.713 ± 0.4, N -1.02 ± 0.41, R -1.03 ± 0.24, S -1 ± 0.3, V -0.698 ± 0.21, W -0.593 ± 0.23
S16: A -0.026 ± 0.089, C -0.086 ± 0.12, D 0.026 ± 0.11, E 0.006 ± 0.091, F -0.232 ± 0.099, G -0.059 ± 0.065, H -0.287 ± 0.17, I -0.361 ± 0.17, K 0.036 ± 0.12, L -0.106 ± 0.084, M -0.076 ± 0.12, N -0.044 ± 0.17, P -0.441 ± 0.13, Q 0.012 ± 0.14, R -0.011 ± 0.063, T -0.067 ± 0.13, V -0.261 ± 0.075, W -0.502 ± 0.088, Y -0.004 ± 0.14
H17: A -0.055 ± 0.081, C -0.201 ± 0.11, E -0.176 ± 0.089, F -0.104 ± 0.15, G -0.683 ± 0.074, I -0.219 ± 0.14, L -0.188 ± 0.081, M -0.147 ± 0.1, N -0.189 ± 0.16, P -0.807 ± 0.16, Q -0.134 ± 0.12, R -0.444 ± 0.072, S -0.039 ± 0.085, T -0.234 ± 0.096, V -0.069 ± 0.07, W -0.048 ± 0.08, Y 0.041 ± 0.11
F18: A -0.84 ± 0.091, C -0.935 ± 0.16, D -0.568 ± 0.16, E -0.875 ± 0.12, H -0.932 ± 0.21, I -0.973 ± 0.2, K -0.925 ± 0.15, L -1.01 ± 0.11, N -1.18 ± 0.24, Q -0.703 ± 0.2, R -0.935 ± 0.097, S -0.902 ± 0.11, T -0.922 ± 0.14, V -0.859 ± 0.077, W -0.5 ± 0.096, Y 0.026 ± 0.12
L19: A -0.029 ± 0.086, C -0.138 ± 0.091, D -0.191 ± 0.11, E -0.086 ± 0.1, F -0.346 ± 0.11, G -0.238 ± 0.062, H -0.173 ± 0.097, K -0.057 ± 0.091, M 0.033 ± 0.099, N 0.014 ± 0.13, P -1.09 ± 0.19, Q 0.002 ± 0.1, R -0.024 ± 0.059, S -0.047 ± 0.069, T -0.155 ± 0.093, V -0.075 ± 0.066, W -0.339 ± 0.074, Y -0.288 ± 0.15
K20: A -0.218 ± 0.079, C -0.465 ± 0.14, D -0.197 ± 0.15, F -0.438 ± 0.12, G -0.366 ± 0.079, H -0.279 ± 0.14, I -0.191 ± 0.1, L -0.195 ± 0.072, M -0.187 ± 0.12, N -0.109 ± 0.11, P -0.912 ± 0.17, Q 0.054 ± 0.14, R -0.05 ± 0.075, S -0.233 ± 0.078, T -0.256 ± 0.1, V -0.127 ± 0.089, W -0.421 ± 0.097, Y -0.335 ± 0.11
C21: D -0.094 ± 0.12, E 0.048 ± 0.089, F -0.407 ± 0.16, G -0.468 ± 0.062, H -0.031 ± 0.19, I -0.73 ± 0.24, K -0.408 ± 0.12, L -0.611 ± 0.088, M -0.314 ± 0.1, P -0.719 ± 0.13, Q 0.084 ± 0.11, R -0.501 ± 0.063, S 0.041 ± 0.086, T -0.094 ± 0.1, V -0.249 ± 0.069, Y -0.383 ± 0.12
P22: A -0.121 ± 0.2, G -0.19 ± 0.11, H -0.448 ± 0.36, I -0.572 ± 0.23, K -0.432 ± 0.48, L -0.732 ± 0.41, R -0.398 ± 0.14, S -0.35 ± 0.17, V -0.641 ± 0.18, Y -0.383 ± 0.47
K23: A -0.001 ± 0.077, D 0.114 ± 0.099, E -0.028 ± 0.072, F -0.034 ± 0.12, G -0.252 ± 0.063, H -0.127 ± 0.14, I -0.065 ± 0.12, L -0.057 ± 0.075, M -0.031 ± 0.1, N 0.248 ± 0.11, P -0.724 ± 0.2, Q -0.192 ± 0.12, R -0.049 ± 0.063, S 0.033 ± 0.069, T -0.052 ± 0.1, V -0.082 ± 0.066, W -0.084 ± 0.077, Y -0.05 ± 0.11
P24: A -0.778 ± 0.14, C -0.83 ± 0.19, D -0.802 ± 0.17, E -0.871 ± 0.17, F -0.827 ± 0.22, G -1.05 ± 0.11, I -0.731 ± 0.22, K -0.93 ± 0.23, L -0.881 ± 0.099, M -0.867 ± 0.16, Q -0.842 ± 0.2, R -0.918 ± 0.094, S -0.874 ± 0.13, T -0.825 ± 0.24, V -0.792 ± 0.093
S25: C -0.185 ± 0.11, E -0.287 ± 0.11, F -0.773 ± 0.25, G -0.172 ± 0.063, H -0.593 ± 0.17, I -0.84 ± 0.41, K -0.565 ± 0.11, L -0.559 ± 0.078, M -0.681 ± 0.15, N -0.092 ± 0.16, P -0.373 ± 0.14, Q -0.537 ± 0.11, R -0.398 ± 0.065, T -0.075 ± 0.11, V -0.45 ± 0.081
